Earlier results on one substance are cited in publication PMC6767322.

pKd: −log10 of the molar value.

The target of the series is IL-2Rβ/γc (Homo sapiens) (UniProt P14784).
Sequence of UniProt P14784 (P14784 27-240, chain 1 of 2): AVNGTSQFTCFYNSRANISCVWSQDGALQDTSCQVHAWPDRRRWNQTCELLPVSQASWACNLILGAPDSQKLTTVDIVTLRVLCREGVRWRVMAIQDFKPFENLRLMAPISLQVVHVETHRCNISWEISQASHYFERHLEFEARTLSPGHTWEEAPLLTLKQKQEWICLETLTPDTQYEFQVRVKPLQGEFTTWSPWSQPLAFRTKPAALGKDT
Sequence of UniProt P14784 (P31785 23-262, chain 2 of 2, further chain): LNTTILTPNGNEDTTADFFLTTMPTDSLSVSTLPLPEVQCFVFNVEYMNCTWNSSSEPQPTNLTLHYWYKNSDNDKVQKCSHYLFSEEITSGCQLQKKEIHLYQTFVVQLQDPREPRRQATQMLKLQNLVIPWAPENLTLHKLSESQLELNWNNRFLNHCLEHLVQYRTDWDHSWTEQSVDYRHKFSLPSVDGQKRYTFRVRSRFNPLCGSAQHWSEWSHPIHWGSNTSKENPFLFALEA

On to IL-15 (from UniProt P40933), for which the negative logarithm of the Kd (pKd) was 7.52.
